Results on 8 molecules are retold here after PMC6908968 (Cell, 2019).

Assay [1] has as its target EBOV GP ectodomain residues 1-636 (GPec) (Zaire ebolavirus, strain  …, UniProt Q05320).
The target of assay [2] is T1, thermolysin-cleaved EBOV GP on Jurkat-GP cells (cleaved GP) (Zaire ebolavirus, Makona (GP1 core …, strain)).
T1 chain 1: not shown
T1 chain 2: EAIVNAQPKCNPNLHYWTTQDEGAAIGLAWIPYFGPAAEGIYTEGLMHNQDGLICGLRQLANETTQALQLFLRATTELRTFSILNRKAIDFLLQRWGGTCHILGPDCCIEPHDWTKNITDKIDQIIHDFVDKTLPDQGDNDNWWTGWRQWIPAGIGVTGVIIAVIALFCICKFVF

B1: 5.6.c3955 (antibody, V domains shown)
VH: EVQLVESGGGLVQPGGSLRLSCAASGFTFSTYSMNWLRQAPGKGLEWISFISIRSTTTYYADSVKGRFTISRDDAKNSLYLQMNSLRDEDTAVYYCARVYMRTFYFDNWGQGTLVTVSS
VL: QSALTQPASVSGSPGQSITISCTGTSSDVGDYNYVSWYQQHPGKAPKLLIFDVSNRPSGVSNRFSGSKSGNTASLTISGLQAEDEADYYCSSYASSRTSWVFGGGTKLTVL
On to B1, for which, in assay [1], the binding result is on record as “binds”.

B2: 5.6.c2455 (antibody, V domains shown)
VH: QVQLVESGGGVVQPGRSLRLSCAASGFTFSSYAIHWVRQAPGKGLEWVAVISDDGNHKYYADSVKGRFTISRDNSKNTLFLQMNSLRPEDTAVYYCAKNRLVFGVIWFYDMDVWGQGTTVTVSS
VL: QSVLTQPPSVSAAPGQKVTISCSGSSSNIGNNYVSWYQQLPGSAPKLLIYDNNKRPSGIPDRFSGSKSGTSATLDITGLQTGDEADYYCGTWDTSLRGVFGGGTKLTVL
For B2, the binding result in assay [2] and in assay [1] was “binds” each time.

B3: 15.0.c775 (antibody, V domains shown)
VH: EEQLLESGGGLVQPGGSLRLSCAASGFTFSGYDMSWVRQAPGKGLEWVSLLSWSGDAKYYADSVKGRFTISRDNSKNTLYLQMNSLRAEDTAVYYCAGDSSGYNNERLYYTYYMDVWGKGTTVTVSS
VL: DIQMTQSPSSVSASVGDRVTITCRANQAISSWLAWYQQKPGKAPKLLISAASSLQSGVPPRFSGSGSGTDFTLTISSLQPEDFATYYCQQANSFPLTFGGGTKVEIK
Consider B3, for which the binding result in assay [2] and in assay [1] was “binds” in each case.

B4: 15.0.c770 (antibody, V domains shown)
VH: QVHLVESGGGVVQPGRSLRLSCAVSGFTFSSCGMHWVRQAPGKGLEWVAVISYDGSDKYYADSVKGRFTISRDNSNNTLYLQMNSLSIEDTAVYYCAKDYYYGSGSDLYYYYYGMDVWGLGTTVTVSS
VL: EIVLTQSPGTLSLSPGDRATLSCRASQSVSSTYLAWYQQKPGQAPRLLIYGASSRATGIPDRFSGSGSGTDFTLTISRLEPEDFAVYYCQQYVTSPYSFGQGTKLEIK
Take B4: the binding result in assay [2] and in assay [1] was “binds” throughout.

B5: 15.0.c888 (antibody, V domains shown)
VH: QVQLVESGGGVVQPGRSLRLSCAASGFTFSSYGMHWVRQAPGKGLEWVAVISYDGSNEYHADSVKGRFTISRDNSKNTLYLQMNSLRPEDTAVYYCAKGARSSSSLDLYYYYYYMDVWGKGTTVTVSS
VL: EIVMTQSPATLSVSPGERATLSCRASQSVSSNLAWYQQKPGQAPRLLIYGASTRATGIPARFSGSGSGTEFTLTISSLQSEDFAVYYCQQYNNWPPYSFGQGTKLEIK
As for B5, the binding result in assay [2] and in assay [1] was “binds” in each case.

B6: 5.6.c2481 (antibody, V domains shown)
VH: QLQLQESGPGLVKPSETLSLTCTVSGGSISSSTYYWGWIRQPPGKGLEWIGSIFYRGITYYNPSLKSRVTISVDTSKNQFSLKLSSVTAADTAVYYCARGGVIVLMVYAIVPPDVWGQGTTVTVSS
VL: QSALTQPASVSGSPGQSITISCTGSRSDVGGYNYVSWYQQHPGKAPKLMISDVSNRPSGVSNRFSGSKSGNTASLTISGLQAEDEADYYCSSYTSSSTVVFGGGTKLTVL
Consider B6, for which the binding result in assay [2] and in assay [1] was “binds” each time.

B7: 5.6.c3242 (antibody, V domains shown)
VH: QVQLQESGPGLVKPSATLSLTCTVSGGSISSDHWSWIRQPPGKGLEWIGHVIYSGSTNYIPSLKSRVTISIDTSKNQFSLKLRSVTAADTAVYYCARGGGWYDNWFDPWGQGTLVTVSS
VL: QSALTQPASVSGSPGQSIIISCTGTSNDVGSYNLVSWYQQHPGKAPKLMIYEGNKRPSGVSNRFSGSKSGNAASLKISGLQSEDEAEYYCCSYAGSGTWVFGGGTKLTVL
Regarding B7, in assay [1], the binding result is reported as “binds”.

B8: 5.6.c2460 (antibody, V domains shown)
VH: QLQLQESGPGLVKPSETLSLSCSVSGGSISSSDDHWGWIRQSPGKGLEWIGSVSYSGSVYYNPSLKSRVTISVDTSKTQFSLRLRSVTAADTAVYNCARHRSDQMLFYWFDPWGQGTLVTVSS
VL: ETLMTQSPATLSVTPGESATLSCRASQTISSSLAWFQQKPGQAPRLLIHGASTRATGIPARFSGSGSGTEFTFTISSLQSEDFAVYFCQQYHNWPPTFGQGTKVEIK
As for B8, the binding result in assay [2] and in assay [1] was “binds” throughout.
